Data published in PMC11667970, “Mycobacterium tuberculosis Mce3R TetR-like Repressor Forms an Asymmetric Four-Helix Bundle and Binds a Nonpalindrome Sequence†” (ACS Chemical Biology, 2024).
Several values for one entry are separate records, joined by “and”; a condition that tells them apart may be missing. Equal entries are not always repeated.

Tests used:
[1] = molecular target: the molecule itself; test: SEC; M1 on Superdex 200 HiLoad 16:60, Buffer E (20 mM Tris-HCl pH 7.5, 0.2 M NaCl); two peaks (Figure S1B)
SEC = molecular target: the molecule itself; test: SEC
Mce3R R53A = molecular target: T1, Mce3R R53A (Mycobacterium tuberculosis H37Rv, UniProt P95251 1-406, R53A); test: EMSA; 0-128 nM; high-affinity binding lost; conditions: protein: recombinant; tags: MBP-His6 N-terminal, removed with TEV (same protocol as WT); chain copies: 2; label: 5'-Cy3 (forward strand); blunt
T1 sequence: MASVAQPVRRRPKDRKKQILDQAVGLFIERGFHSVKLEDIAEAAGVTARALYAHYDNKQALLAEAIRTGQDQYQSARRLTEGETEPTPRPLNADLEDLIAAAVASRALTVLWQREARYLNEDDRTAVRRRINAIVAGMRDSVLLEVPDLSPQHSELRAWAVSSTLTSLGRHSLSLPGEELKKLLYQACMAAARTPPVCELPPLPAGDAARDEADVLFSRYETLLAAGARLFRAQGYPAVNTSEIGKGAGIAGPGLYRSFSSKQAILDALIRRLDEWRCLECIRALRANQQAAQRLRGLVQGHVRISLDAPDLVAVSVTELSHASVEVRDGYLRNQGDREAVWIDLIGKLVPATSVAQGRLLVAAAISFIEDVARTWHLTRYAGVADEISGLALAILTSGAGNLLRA

B1: M1, N-terminal TFR segment of Mce3R (amino acids 13-193) (domain or fragment)
chain: KDRKKQILDQAVGLFIERGFHSVKLEDIAEAAGVTARALYRHYDNKQALLAEAIRTGQDQYQSARRLTEGETEPTPRPLNADLEDLIAAAVASRALTVLWQREARYLNEDDRTAVRRRINAIVAGMRDSVLLEVPDLSPQHSELRAWAVSSTLTSLGRHSLSLPGEELKKLLYQACMAAAR
notes: Mce3R (Rv1963c), Mycobacterium tuberculosis H37Rv, amino acids 13-193 (M1); calculated monomer MW 20.2 kDa; also called M1 homotetramer; M1 homodimer
[1]
  stoichiometry N: 4 and 2

B2: Mce3R R53A variant (natural protein)
chain: T1 sequence
notes: not shown: MBP, N-terminal, cleaved; His6, N-terminal, cleaved
SEC
  stoichiometry N: 2 and 4

B3: Probe A (dsDNA)
DNA 1: GCCCCGCGCTATAGGATACTAGCAAGATACATCATAGCCAATATATGCCAGTTTGCATTGCTATTTACCGATCAGTTGTCCAAGCAATCGCGTATTGGCTATGGACATCAGCGGTTCTGCCGC
DNA 2: GCGGCAGAACCGCTGATGTCCATAGCCAATACGCGATTGCTTGGACAACTGATCGGTAAATAGCAATGCAAACTGGCATATATTGGCTATGATGTATCTTGCTAGTATCCTATAGCGCGGGGC
Mce3R R53A
  binding result: no binding
